Measured values from patent publication US20200317791A1 (Janssen / Centocor, published 2020).
Like-named read-outs stand apart in the source and are kept apart here.

Columns and labels:
CW6W54.001 [1] = assay: SPR Biacore 8K, captured mAb; Kinetic fit not valid
CW6W55.ECO.PP.002 [2] = assay: as above
A24_A*24:02 [3] = target: T1, A24_A*24:02 (human, UniProt A*24:02); assay: LABScreen beads
T1 construct: on LABScreen bead; also called HLA-A*24:02 (LABScreen class I bead)
T1 heavy chain: not shown

CW6W56.ECO.PP.001 = assay: SPR Biacore 8K, captured mAb; Acceptable fit
Text: (§1) To further characterize the ability of the antibodies to differentiate between class I MHC molecules.
A24_A*24:02 [4] = target: T1, A24_A*24:02; assay: LABScreen beads
CW6W55.ECO.PP.002 [5] = assay: SPR Biacore 8K, captured mAb; Acceptable fit
Text: as §1
A24_A*24:02 [6] = target: T1, A24_A*24:02; assay: LABScreen beads
[7] = target: T2, CW6W3.ECO.PP.002/.003 (rhHLA-Cw6/ARF) (human); assay: SPR ProteOn XPR36, captured mAb; valid kinetic fit, range of two replicates (upper end)
T2 construct: also called rhHLA-Cw6/ARFN; rHLA-Cw6/ARFN
Experimental: (§2) Anti-HLA-Cw6 mAbs were captured at ligand densities ranging from 100 to 200 response units. […] All analyses were conducted in PBST at 100 μL/min flow rate with association and dissociation times of 180 and 900 seconds, respectively. […] Analyte raw data was double referenced by subtraction of the blank surface response at “interspots” (to correct for refractive index changes and any non-specific interactions with the chip surface) and of the buffer blank response (to correct for any baseline drift resulting from mAb dissociation over time). Referenced data were globally fit to a 1:1 simple Langmuir binding model. Kinetic parameters were calculated for each mAb/antigen combination or interaction using Bio-Rad ProteOn Manager software (version 3.1.0.6) with parameter (kon, koff, Rmax) scope and type set to “Grouped” and “Fitted,” respectively.

A24_A*24:02 [8] = target: T1, A24_A*24:02; assay: LABScreen beads
CW6W32 (rhHLA-Cw6/TRAT) = target: T3, CW6W32 (rhHLA-Cw6/TRAT) (human); assay: SPR Biacore 8K, captured mAb; Kinetic fit not valid
T3 construct: also called CW6W32.009; rHLA-Cw6/TRAT

[9] = target: T2, CW6W3.ECO.PP.002/.003 (rhHLA-Cw6/ARF); assay: SPR ProteOn XPR36, captured mAb; valid kinetic fit, range of two replicates
Experimental: as §2

CW6W54.001 [10] = assay: SPR Biacore 8K, captured mAb; Acceptable fit
Text: as §1

[11] = target: T4, CW6W36 (rhHLA-Cw6/ADAMTSL5) (human); assay: SPR Biacore 8K, captured mAb; Acceptable fit
T4 construct: also called CW6W36.002; rHLA-Cw6/ADAMTSL5
Text: as §1

CW6W53.001 = assay: SPR Biacore 8K, captured mAb; Acceptable fit
Text: as §1

CW6W51.001 = assay: SPR Biacore 8K, captured mAb; Acceptable fit
Text: as §1

CW6W35.001 = assay: SPR Biacore 8K, captured mAb; Acceptable fit
Text: as §1

B1: CW6B229 (antibody, V domains shown)
VH: QVQLQESGPGLVKPSETLSLTCTVSGNSIRSYYWSWIRQPAGKGLEWIGRIYISGNTNYNPSLKSRVTMSIDTSKNQFSLKLSSVTAADTAVFYCARLSGIDAFDIWGQGTMVTVSS
VL: DIQMTQSPSSLSASVGDRVTITCQASQDISNYLNWYQQKPGKAPKLLIYDASNLETGVPSRFSGSGSGTDFTFTISSLQPEDFATYYCQQYDNLPITFGQGTRLEIK
notes: also called CW6B229.001; CW6M229 (DNA ID)
Binder B1 has a Kd (CW6W54.001 [1]) of 673 pM, a koff (CW6W54.001 [1]) of 0.000465 s⁻¹ and a kon (CW6W54.001 [1]) of 691000 M⁻¹ s⁻¹. For the same binder, the Kd (CW6W55.ECO.PP.002 [2]) was 7100 pM, the binding result (A24_A*24:02 [3]) was “no binding (tested: 10 µg/ml)” and the Kd (CW6W56.ECO.PP.001) was 1230 pM. It also gave a koff (CW6W56.ECO.PP.001) of 0.00127 s⁻¹ and a kon (CW6W56.ECO.PP.001) of 1.03e+06 M⁻¹ s⁻¹.

B2: CW6B230 (antibody, V domains shown)
VH: QVQLQESGPGLVKPSETLSLTCTVSGNSISNYYWSWIRQPAGKGLEWIGRIYITGNTNYNPSLKSRVTMSLDTSKNQFSLKLSSVTAADTAVYYCARLSGIDAFDIWGQGTMVTVSS
VL: DIQMTQSPSTLSASVGDRVTFTCQASQDITKYLNWYQQKPGKAPKLLIYDASNLETGVPSRFSGSGSGTDFTFTISSLQPEDFATYYCQQYDDLPITFGQGTRLEIK
notes: also called CW6B230.001; CW6M230 (DNA ID)
B2 was tested, and the Kd (CW6W54.001 [1]) was 1400 pM, the koff (CW6W54.001 [1]) was 0.000655 s⁻¹ and the kon (CW6W54.001 [1]) was 467000 M⁻¹ s⁻¹. The binding result (A24_A*24:02 [4]) was “no binding (tested: 10 µg/ml)”, the Kd (CW6W56.ECO.PP.001) was 2070 pM and the koff (CW6W56.ECO.PP.001) was 0.00295 s⁻¹. The kon (CW6W56.ECO.PP.001) was 1.42e+06 M⁻¹ s⁻¹, the Kd (CW6W55.ECO.PP.002 [5]) was 8900 pM and the koff (CW6W55.ECO.PP.002 [5]) was 0.00655 s⁻¹. The kon (CW6W55.ECO.PP.002 [5]) was 737000 M⁻¹ s⁻¹.

B3: CW6B238 (antibody, V domains shown)
VH: QVTLKESGPVLVKPTETLTLTCTVSGFSLNNARMGVSWIRQPPGKALEWLAHMFSSDEKFYRTSLKSRLTISKDTSKSQVVLTMTNMDPVDTATYYCARISLYSSGHDTFDLWGQGTMVTVSS
VL: AIQMTQSPSSLSASVGDRVTITCRASQDIRNTLGWYQQKPGKAPNLLIYAASSLQSGVPSRFSGSGSGTDFTLTISSLQPEDFATYYCLQDYDYPLTFGGGTKVEIK
notes: also called CW6B238.001; CW6M238 (DNA ID)
B3: no binding (tested: 10 µg/ml) (A24_A*24:02 [6]).

B4: CW6B175 (antibody, V domains shown)
VH: EVQLVESGGGLVQPGGSLRLSCAASGFTFTNYWMTWVRQAPGKGLEWVANIKQSGSEKYYVDSVKGRFTISRDNAKNSLYLQMNSLRAEDTAVYYCARTLYEWELEPFDYWGQGTLVTVSS
VL: SYVLTQPPSVSVAPGQTARITCGGNRIGSKSVHWYQQKPGQAPVLVVFDDSDRPSGIPERFSGSNSGITATLTISRVEAGDEADYYCQVWDSSNDHVVFGGGTKLTVL
notes: also called CW6B175.001; CW6M175 (DNA ID)
With B4 the Kd [7] was 34.6 pM, the koff [7] was 0.000363 s⁻¹ and the kon [7] was 1.1e+07 M⁻¹ s⁻¹. The binding result (A24_A*24:02 [8]) was “no binding (tested: 10 µg/ml)”, the Kd (CW6W32 (rhHLA-Cw6/TRAT)) was 663 pM and the koff (CW6W32 (rhHLA-Cw6/TRAT)) was 0.284 s⁻¹. For the same binder, the kon (CW6W32 (rhHLA-Cw6/TRAT)) was 4.28e+08 M⁻¹ s⁻¹, the Kd [9] was 28.5 pM and the koff [9] was 0.000314 s⁻¹. It also gave a kon [9] of 1.05e+07 M⁻¹ s⁻¹, a Kd (CW6W54.001 [10]) of 128 pM and a koff (CW6W54.001 [10]) of 0.000842 s⁻¹. For the same binder, the kon (CW6W54.001 [10]) was 6.6e+06 M⁻¹ s⁻¹, the Kd [11] was 1870 pM and the koff [11] was 0.0163 s⁻¹. The kon [11] was 8.73e+06 M⁻¹ s⁻¹, the Kd (CW6W53.001) was 327 pM and the koff (CW6W53.001) was 0.00056 s⁻¹. The kon (CW6W53.001) was 1.72e+06 M⁻¹ s⁻¹, the Kd (CW6W51.001) was 157 pM and the koff (CW6W51.001) was 0.000285 s⁻¹. It also gave a kon (CW6W51.001) of 1.82e+06 M⁻¹ s⁻¹, a Kd (CW6W35.001) of 120 pM and a koff (CW6W35.001) of 0.000126 s⁻¹. For the same binder, the kon (CW6W35.001) was 1.05e+06 M⁻¹ s⁻¹.
